# The MegaScale stability set (Tsuboyama et al. 2023)
# B1: EEHEE_rd4_0763 (parent)
# chain: LTVHVGNVTYHFDNPEQAEEWAKRMAKKYQGQIHVKDGQFRIE
# Variants of: B1
# Experiment: folding stability dG (cDNA display proteolysis); higher = more stable
# Settings: PBS, room temperature
row,Variant,folding stability dG [kcal/mol]
1,LTVHVGNVTYHFDNPEQAEEWAKRMAKKYQGQIHVKDGQFKIE [R41K],1.38
2,LTVHVGNVTYHFDNPEQAEEWAKRMAKKCQGQIHVKDGQFRIE [Y29C],2.16
3,ITVHVGNVTYHFDNPEQAEEWAKRMAKKYQGQIHVKDGQFRIE [L1I],1.7
4,LTVHVGNVTYHFDNPEIAEEWAKRMAKKYQGQIHVKDGQFRIE [Q17I],1.51
5,LTVHVGNVTYHFYNPEQAEEWAKRMAKKYQGQIHVKDGQFRIE [D13Y],1.34
6,LTVHVGNVTYHFDNPEQAEEWAKRMAKKYQGQIHGKDGQFRIE [V35G],0.956
7,LTVHVGNSTYHFDNPEQAEEWAKRMAKKYQGQIHVKDGQFRIE [V8S],1.37
8,LTVHVGNVTYHFDNPEQAEEWAKRMAKKYQGQIHVKDLQFRIE [G38L],1.18
9,LTVHVGNVTYHFDNPESAEEWAKRMAKKYQGQIHVKDGQFRIE [Q17S],1.64
10,LTVHVGNVTYHFQNPEQAEEWAKRMAKKYQGQIHVKDGQFRIE [D13Q],1.57
11,LTVHVGNVTYHFDNPEQAEEWAKRMAKKPQGQIHVKDGQFRIE [Y29P],0.306
12,LTVHVGNVTYHFDNPEQAEEWAKRMAKKYQGQIHVKDGLFRIE [Q39L],0.835
13,LTVHVSNVTYHFDNPEQAEEWAKRMAKKYQGQIHVKDGQFRIE [G6S],1.11
14,LTVHVGNVTYHFDNPEQAEEWAKQMAKKYQGQIHVKDGQFRIE [R24Q],1.54
15,LTVHVGNVTYHFDNPEQWEEWAKRMAKKYQGQIHVKDGQFRIE [A18W],1.11
16,LTVHVGNVTYHFDNPEQAEVWAKRMAKKYQGQIHVKDGQFRIE [E20V],1.35
17,LTVHVGNVTYHFDNPEQAEEWAKRMAKKYQKQIHVKDGQFRIE [G31K],1.24
18,LTVHVGNVTYHFDNPEQAAEWAKRMAKKYQGQIHVKDGQFRIE [E19A],1.71
19,LTVHVGNVTYHFDNPEQAEEWAKRMAKKYQGQIHVKIGQFRIE [D37I],0.903
20,LTVHVGNVTYHFKNPEQAEEWAKRMAKKYQGQIHVKDGQFRIE [D13K],1.67

row,Variant,folding stability dG [kcal/mol]
1,LTVHVGNVTYHFDNDEQAEEWAKRMAKKYQGQIHVKDGQFRIE [P15D],1.17
2,LTVHVGNVTYHFDNPEDAEEWAKRMAKKYQGQIHVKDGQFRIE [Q17D],1.8
3,LTVHAGNVTYHFDNPEQAEEWAKRMAKKYQGQIHVKDGQFRIE [V5A],1.32
4,LTVHVGNVTYHFDNPEQAEEWAKRMAKKYQGQIHVKDGGFRIE [Q39G],1.7
5,LTVHVGNVTYHFDNPEQAEEWAKRAAKKYQGQIHVKDGQFRIE [M25A],0.874
6,LTVHVGNVTYHFDNPEQAEEQAKRMAKKYQGQIHVKDGQFRIE [W21Q],0.239
7,LTVHVGNVTYHFDNPEQAEEWAKRMAKKYQGTIHVKDGQFRIE [Q32T],1.99
8,LTVHVGNVTYHFDNPEQALEWAKRMAKKYQGQIHVKDGQFRIE [E19L],2.25
9,LTVHVGNVTYHFDNPEQSEEWAKRMAKKYQGQIHVKDGQFRIE [A18S],0.551
10,LTVHVGNVTYHFDNPEQAESWAKRMAKKYQGQIHVKDGQFRIE [E20S],1.62
11,LTVHVGNVTYHFDNPEQAEEWAKRSAKKYQGQIHVKDGQFRIE [M25S],0.407
12,LVVHVGNVTYHFDNPEQAEEWAKRMAKKYQGQIHVKDGQFRIE [T2V],1.61
13,LTVHVGNVTYHFDNHEQAEEWAKRMAKKYQGQIHVKDGQFRIE [P15H],1.7
14,LTVHVGNVTYHFDNPEQAEEWAKRMAKKYQGQIHPKDGQFRIE [V35P],0.636
15,LTVHVGNVTYHFDNPEQAEEWAKRMAKKYQGQIVVKDGQFRIE [H34V],2.26
16,LTVHVGNVTYHFDNPEQAEEWAKRMAPKYQGQIHVKDGQFRIE [K27P],0.724
17,LTVHVGNVTYHFDNPEQAEEWAKRMAKKYQGQIHVKEGQFRIE [D37E],1.23
18,LTVHVGNVTYHFDNPEQAKEWAKRMAKKYQGQIHVKDGQFRIE [E19K],1.62
19,LTVHVGNVTYHFDNPEQAEEWAKRMAKKYQGQITVKDGQFRIE [H34T],2.03
20,LTVHVGNVTYHFDNPEQAEEWAKRMAKKYQGFIHVKDGQFRIE [Q32F],1.53

row,Variant,folding stability dG [kcal/mol]
1,LTVHVGNVWYHFDNPEQAEEWAKRMAKKYQGQIHVKDGQFRIE [T9W],1.28
2,LTVHVGNVTYHFDNPEQAEEWAKRMAKKYQGQIHVGDGQFRIE [K36G],1.39
3,LTVHVGNVTYHFDNPEQAEEWAQRMAKKYQGQIHVKDGQFRIE [K23Q],1.55
4,LTVHVRNVTYHFDNPEQAEEWAKRMAKKYQGQIHVKDGQFRIE [G6R],1.31
5,LTVHVGNVHYHFDNPEQAEEWAKRMAKKYQGQIHVKDGQFRIE [T9H],1.47
6,LTVHVGNVTYHFDNPEQAEEWAKRMAKKYQGQIHVKDGEFRIE [Q39E],1.88
7,LTVHVGNVTYHFDNPEQAEEWAFRMAKKYQGQIHVKDGQFRIE [K23F],1.61
8,LTVHHGNVTYHFDNPEQAEEWAKRMAKKYQGQIHVKDGQFRIE [V5H],1.26
9,LTVHVGPVTYHFDNPEQAEEWAKRMAKKYQGQIHVKDGQFRIE [N7P],1.45
10,LTVHVGNVTYHFDNPEQAEEAAKRMAKKYQGQIHVKDGQFRIE [W21A],0.89
11,LTVHVGNVTYHFDNPEQAEEWAKRVAKKYQGQIHVKDGQFRIE [M25V],1.23
12,LTVHVGNVTYHFDNPEQAEEWYKRMAKKYQGQIHVKDGQFRIE [A22Y],1.06
13,LTVHVGNVTYHFDNPEQAEEWAKHMAKKYQGQIHVKDGQFRIE [R24H],1.44
14,LTVHVGNVTYHFDNPEQAEEWAKRMAKKYQFQIHVKDGQFRIE [G31F],1.69
15,LTVHVGNVTYHFDNPEQACEWAKRMAKKYQGQIHVKDGQFRIE [E19C],2.53
16,LTVHVGNVTYHFDNPEQAEEWAKRMAKKYQGGIHVKDGQFRIE [Q32G],1.01
17,LTVHVGNVTYHFDNPEQAEEWAKRWAKKYQGQIHVKDGQFRIE [M25W],1.34
18,LTVHVGNVTYHFDNPEQAEEWAKRMAKKYQGEIHVKDGQFRIE [Q32E],1.56
19,LTVHVGNVTKHFDNPEQAEEWAKRMAKKYQGQIHVKDGQFRIE [Y10K],0.806
